# Measured values: publication PMC8710044 (Biochemical pharmacology, 2021)
# T1: CYP2C8 (Homo sapiens, UniProt P10632)
# T1 sequence (P10632 1-490): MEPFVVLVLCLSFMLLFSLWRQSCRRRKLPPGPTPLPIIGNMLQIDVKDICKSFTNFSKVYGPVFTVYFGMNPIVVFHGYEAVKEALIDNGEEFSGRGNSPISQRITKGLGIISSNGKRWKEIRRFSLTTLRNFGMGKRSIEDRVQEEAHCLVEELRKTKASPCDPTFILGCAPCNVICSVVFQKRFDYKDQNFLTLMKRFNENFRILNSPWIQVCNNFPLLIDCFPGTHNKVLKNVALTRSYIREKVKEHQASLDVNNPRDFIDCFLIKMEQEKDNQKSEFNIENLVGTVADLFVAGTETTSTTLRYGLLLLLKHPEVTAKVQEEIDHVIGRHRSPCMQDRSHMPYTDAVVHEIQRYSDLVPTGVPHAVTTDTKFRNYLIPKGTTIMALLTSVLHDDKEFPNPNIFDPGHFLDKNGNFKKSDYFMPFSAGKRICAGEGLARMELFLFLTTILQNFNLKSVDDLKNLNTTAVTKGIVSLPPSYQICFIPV
# B1: CYP2C19 (Homo sapiens) (protein)
# chain: MDPFVVLVLCLSCLLLLSIWRQSSGRGKLPPGPTPLPVIGNILQIDIKDVSKSLTNLSKIYGPVFTLYFGLERMVVLHGYEVVKEALIDLGEEFSGRGHFPLAERANRGFGIVFSNGKRWKEIRRFSLMTLRNFGMGKRSIEDRVQEEARCLVEELRKTKASPCDPTFILGCAPCNVICSIIFQKRFDYKDQQFLNLMEKLNENIRIVSTPWIQICNNFPTIIDYFPGTHNKLLKNLAFMESDILEKVKEHQESMDINNPRDFIDCFLIKMEKEKQNQQSEFTIENLVITAADLLGAGTETTSTTLRYALLLLLKHPEVTAKVQEEIERVIGRNRSPCMQDRGHMPYTDAVVHEVQRYIDLIPTSLPHAVTCDVKFRNYLIPKGTTILTSLTSVLHDNKEFPNPEMFDPRHFLDEGGNFKKSNYFMPFSAGKRICVGEGLARMELFLFLTFILQNFNLKSLIDPKDLDTTPVVNGFASVPPFYQLCFIPV
# Tests used:
# CYP2C8 [1] = biological target: T1, CYP2C8; test: Steady-state kinetics of overall NSAID metabolism; format: in vitro ADME
# CYP2C8 [2] = biological target: T1, CYP2C8; test: Relative CYP contribution to hepatic bioactivation and detoxification, CYP2C8; format: in vitro ADME
# CYP3A4 [3] = biological target: T2, CYP3A4 (Homo sapiens, UniProt P08684); test: Steady-state kinetics of overall NSAID metabolism; format: in vitro ADME
# T2 sequence (P08684 whole entry): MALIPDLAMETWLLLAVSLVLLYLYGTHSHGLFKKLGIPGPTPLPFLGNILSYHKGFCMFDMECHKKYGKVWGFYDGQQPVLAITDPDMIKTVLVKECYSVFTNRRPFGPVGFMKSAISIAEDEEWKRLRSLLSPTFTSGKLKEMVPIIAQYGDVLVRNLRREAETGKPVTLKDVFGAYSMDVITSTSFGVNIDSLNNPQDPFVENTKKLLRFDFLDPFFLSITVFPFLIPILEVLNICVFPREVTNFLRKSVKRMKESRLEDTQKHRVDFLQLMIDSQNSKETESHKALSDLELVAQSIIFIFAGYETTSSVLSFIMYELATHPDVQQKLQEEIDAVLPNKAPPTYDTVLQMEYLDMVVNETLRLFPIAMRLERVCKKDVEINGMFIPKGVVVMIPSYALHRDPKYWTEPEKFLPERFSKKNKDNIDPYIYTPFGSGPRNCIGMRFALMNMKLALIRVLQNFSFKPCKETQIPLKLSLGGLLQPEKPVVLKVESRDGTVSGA
# CYP2C19 [4] = biological target: T3, CYP2C19 (Homo sapiens, UniProt P33261); test: Steady-state kinetics of overall NSAID metabolism; format: in vitro ADME
# CYP3A4 [5] = biological target: T2, CYP3A4; test: Relative CYP contribution to hepatic bioactivation and detoxification, CYP3A4; format: in vitro ADME
# CYP2C9 = CYP2C9 (Homo sapiens, UniProt P11712); test: Relative CYP contribution to hepatic bioactivation and detoxification, CYP2C9; format: in vitro ADME
# Sequence of CYP2C9 (P11712 whole entry): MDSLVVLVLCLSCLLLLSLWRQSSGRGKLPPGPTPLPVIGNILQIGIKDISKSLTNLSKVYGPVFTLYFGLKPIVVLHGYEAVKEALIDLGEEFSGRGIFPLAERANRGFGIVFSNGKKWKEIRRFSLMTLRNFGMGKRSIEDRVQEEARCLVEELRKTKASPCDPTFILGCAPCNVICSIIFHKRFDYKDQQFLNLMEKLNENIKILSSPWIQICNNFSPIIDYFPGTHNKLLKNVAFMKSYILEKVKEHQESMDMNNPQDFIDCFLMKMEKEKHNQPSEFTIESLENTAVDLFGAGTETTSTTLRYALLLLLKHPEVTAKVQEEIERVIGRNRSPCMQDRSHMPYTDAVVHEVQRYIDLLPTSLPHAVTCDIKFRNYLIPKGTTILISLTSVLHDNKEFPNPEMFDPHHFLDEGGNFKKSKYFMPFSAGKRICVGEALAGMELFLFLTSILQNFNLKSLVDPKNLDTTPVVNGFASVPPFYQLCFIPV
# CYP2C19 [6] = biological target: T3, CYP2C19; test: Relative CYP contribution to hepatic bioactivation and detoxification, CYP2C19; format: in vitro ADME
# [7] = substrate: Cc1cccc(Nc2ccccc2C(=O)O)c1C; test: Steady-state kinetics of overall NSAID metabolism; format: in vitro ADME, human; conditions: other: overall metabolism (depletion) by CYP2C19; 95% CI in parentheses; pH 7.4
# [8] = substrate: O=C(O)COC(=O)Cc1ccccc1Nc1c(Cl)cccc1Cl; test: Steady-state kinetics of overall NSAID metabolism; format: in vitro ADME, human; conditions: other: overall metabolism (depletion) by CYP2C19; 95% CI in parentheses; pH 7.4
# [9] = substrate: O=C(O)c1ccccc1Nc1cccc(C(F)(F)F)c1; test: Steady-state kinetics of overall NSAID metabolism; format: in vitro ADME, human; conditions: other: overall metabolism (depletion) by CYP2C19; 95% CI in parentheses; pH 7.4
# [10] = substrate: Cc1cccc(Nc2ccccc2C(=O)O)c1C; test: Steady-state bioactivation kinetics; format: in vitro ADME, human; conditions: other: CYP2C19, path 1, 2, 95% CI in parentheses, pH 7.4
# [11] = substrate: O=C(O)COC(=O)Cc1ccccc1Nc1c(Cl)cccc1Cl; test: Steady-state bioactivation kinetics; format: in vitro ADME, human; conditions: other: CYP2C19, 95% CI in parentheses, pH 7.4
# [12] = substrate: O=C(O)c1ccccc1Nc1cccc(C(F)(F)F)c1; test: Steady-state bioactivation kinetics; format: in vitro ADME, human; conditions: other: CYP2C19; metabolite M2/M4, path 1, 2; 95% CI in parentheses; pH 7.4
# [13] = substrate: Cc1c(Cl)cccc1Nc1ccccc1C(=O)O; test: cells, lysate or membranes named; conditions: 95% CI in parentheses, pH 7.4
# [14] = substrate: Cc1ccc(Nc2c(F)cccc2Cl)c(CC(=O)O)c1; test: cells, lysate or membranes named; conditions: 95% CI in parentheses, pH 7.4
# [15] = substrate: Cc1ccc(Cl)c(Nc2ccccc2C(=O)O)c1Cl; test: cells, lysate or membranes named; conditions: 95% CI in parentheses, pH 7.4
# [16] = other: CYP2C19, metabolite M2/M4a, path 1, 2
# [17] = other: CYP2C19, metabolite M2/M4b, path 1, 2
# [18] = other: overall metabolism (depletion) by CYP2C19
# [19] = other: CYP2C19, metabolite M2/M4, path 1, 2
# [20] = other: CYP2C19, metabolite M6a, path 3
# [21] = other: CYP2C19, metabolite M6b, path 3
# [22] = other: CYP2C19, metabolite M6, path 3
molecule,measurement,setting,value
"O=C(O)Cc1ccccc1Nc1c(Cl)cccc1Cl [DIC, diclofenac]",Km at 60 min,"CYP2C8 [1]; human, recombinant CYP2C8 Supersomes, pH 7.4",83 µM
same,Vmax,"CYP2C8 [1]; overall metabolism (depletion) by CYP2C8, 95% CI in parentheses",1240 (1170–1320) pmol/min/nmol protein
same,Bioactivation Percent,CYP2C8 [2]; CYP2C8 contribution to total CLbioact of the NSAID,0%
same,Detoxification Percent,CYP2C8 [2]; CYP2C8 contribution to total CLdetox of the NSAID,6.5%
same,Km at 60 min,"CYP3A4 [3]; human, recombinant CYP3A4 Supersomes, pH 7.4",130 µM
same,Vmax,"CYP3A4 [3]; overall metabolism (depletion) by CYP3A4, 95% CI in parentheses",5480 (5090–5930) pmol/min/nmol protein
same,Km at 60 min,"CYP2C19 [4]; human, recombinant CYP2C19 Supersomes, pH 7.4",70.5 µM
same,Vmax,"CYP2C19 [4]; overall metabolism (depletion) by CYP2C19, 95% CI in parentheses",1940 (1840–2040) pmol/min/nmol protein
same,Bioactivation Percent,CYP3A4 [5]; CYP3A4 contribution to total CLbioact of the NSAID,1.1%
same,Detoxification Percent,CYP3A4 [5]; CYP3A4 contribution to total CLdetox of the NSAID,75.9%
same,Bioactivation Percent,CYP2C9; CYP2C9 contribution to total CLbioact of the NSAID,97.9%
same,Detoxification Percent,CYP2C9; CYP2C9 contribution to total CLdetox of the NSAID,12.0%
same,Bioactivation Percent,CYP2C19 [6]; CYP2C19 contribution to total CLbioact of the NSAID,1.0%
same,Detoxification Percent,CYP2C19 [6]; CYP2C19 contribution to total CLdetox of the NSAID,5.5%
B1,Km,[7],220 (180–260) μM
same,kcat,[7],3060 (2830–3320) pmol/min/nmol protein
same,Km,[8],380 (320–460) μM
same,kcat,[8],3050 (2760–3410) pmol/min/nmol protein
same,Km,[9],150 (120–180) μM
same,kcat,[9],2500 (2310–2730) pmol/min/nmol protein
same,Km,[10]; metabolite M2/M4a,10.8 µM
same,kcat,[10]; metabolite M2/M4a,2.0 (1.9–2.1) pmol/min/nmol protein
same,Km,[10]; metabolite M2/M4b,13.6 µM
same,kcat,[10]; metabolite M2/M4b,1.5 (1.4–1.6) pmol/min/nmol protein
same,Km,"[11]; metabolite M2/M4, path 1, 2",18.8 µM
same,kcat,"[11]; metabolite M2/M4, path 1, 2",4.4 (4.2–4.7) pmol/min/nmol protein
same,Km,"[11]; metabolite M6, path 3",74.4 µM
same,kcat,"[11]; metabolite M6, path 3",5.6 (5.2–6.1) pmol/min/nmol protein
same,Km,"[11]; metabolite M9, path 4",8.9 µM
same,kcat,"[11]; metabolite M9, path 4",4.1 (3.9–4.4) pmol/min/nmol protein
same,Km,[12],28.5 µM
same,kcat,[12],7.7 (7.4–8.1) pmol/min/nmol protein
same,Km,[13]; [16],7.4 µM
same,kcat,[13]; [16],2.6 (2.5–2.7) pmol/min/nmol protein
same,Km,[13]; [17],11 µM
same,kcat,[13]; [17],3.9 (3.8–4.0) pmol/min/nmol protein
same,Km,[13]; [18],110 (94–130) μM
same,kcat,[13]; [18],2070 (1950–2210) pmol/min/nmol protein
same,Km,[14]; [19],36.8 µM
same,kcat,[14]; [19],2.5 (2.4–2.7) pmol/min/nmol protein
same,Km,[14]; [20],47.6 µM
same,kcat,[14]; [20],1.8 (1.7–2.0) pmol/min/nmol protein
same,Km,[14]; [21],115 µM
same,kcat,[14]; [21],2.4 (2.2–2.6) pmol/min/nmol protein
same,Km,[14]; [18],77.2 (64–93) μM
same,kcat,[14]; [18],2610 (2450–2790) pmol/min/nmol protein
same,Km,[15]; [19],5.8 µM
same,kcat,[15]; [19],3.1 (3.0–3.2) pmol/min/nmol protein
same,Km,[15]; [22],18.9 µM
same,kcat,[15]; [22],64.2 (61.2–67.4) pmol/min/nmol protein
same,kcat,"[15]; other: CYP2C19, metabolite M9, path 4",6.1 (5.7–6.4) pmol/min/nmol protein
same,Km,[15]; [18],160 (130–190) μM
same,kcat,[15]; [18],2400 (2210–2610) pmol/min/nmol protein
